The numbers were not newly measured in paper doi:10.1101/2020.02.03.932012, which cites them from elsewhere.

By pKa is commonly meant the negative logarithm of the acid dissociation constant.

Test in all cases: stability
What all share (conditions): single buried-residue variants, ligand-free as far as stated

Data set [1] has as its target Lys62 (UniProt position 144, EASAFKKKMVE).
Data set [2] deals with Glu62 (UniProt position 144, EASAFEKKMVE).
For data set [3], the target named is Glu66 (UniProt position 148, FTKKMEENAKK).
In data set [4] the target is Lys66 (UniProt position 148, FTKKMKENAKK).

As for “Staphylococcal nuclease Delta+PHS T62K (Staphylococcus aureus; G50F;V51N;P117G;H124L;S128A;del44-49;T62K)”, the pKa in data set [1] is reported as 8.1.

Take “Staphylococcal nuclease Delta+PHS T62E (Staphylococcus aureus; G50F;V51N;P117G;H124L;S128A;del44-49;T62E)”: the pKa in data set [2] is 7.7. Regarding “Staphylococcal nuclease Delta+PHS V66E (Staphylococcus aureus; G50F;V51N;P117G;H124L;S128A;del44-49;V66E)”, the pKa in data set [3] was 8.5.

On to “Staphylococcal nuclease Delta+PHS V66K (Staphylococcus aureus; G50F;V51N;P117G;H124L;S128A;del44-49;V66K)”, for which the pKa in data set [4] is reported as 5.7.
